Experimental data: US20220025071A1 (BIOMOLECULAR, published 2022)

T1: CD20 Lipoparticles (UniProt P11836 1-297)
T1 sequence (looked up): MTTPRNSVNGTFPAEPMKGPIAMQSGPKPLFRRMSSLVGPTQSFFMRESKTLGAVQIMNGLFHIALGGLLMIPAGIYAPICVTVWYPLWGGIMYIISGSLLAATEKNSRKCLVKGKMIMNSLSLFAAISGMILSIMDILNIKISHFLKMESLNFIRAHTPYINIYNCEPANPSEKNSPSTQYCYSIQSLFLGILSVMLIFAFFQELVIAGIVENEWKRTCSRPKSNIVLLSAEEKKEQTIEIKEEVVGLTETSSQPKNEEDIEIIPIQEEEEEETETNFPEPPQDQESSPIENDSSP

T2: Recombinant human Fc gamma receptor IIa, CD32a 131R (human, UniProt P12318 36-218)
T2 sequence (looked up): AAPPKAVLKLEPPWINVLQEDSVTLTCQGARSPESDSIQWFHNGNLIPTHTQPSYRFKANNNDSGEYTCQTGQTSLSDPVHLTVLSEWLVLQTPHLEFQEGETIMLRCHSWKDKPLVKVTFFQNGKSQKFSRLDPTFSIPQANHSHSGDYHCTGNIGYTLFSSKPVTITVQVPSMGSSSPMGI

T3: Recombinant human Fc gamma receptor IIa, CD32a 131H (human, UniProt P12318 36-218)
T3 sequence (looked up): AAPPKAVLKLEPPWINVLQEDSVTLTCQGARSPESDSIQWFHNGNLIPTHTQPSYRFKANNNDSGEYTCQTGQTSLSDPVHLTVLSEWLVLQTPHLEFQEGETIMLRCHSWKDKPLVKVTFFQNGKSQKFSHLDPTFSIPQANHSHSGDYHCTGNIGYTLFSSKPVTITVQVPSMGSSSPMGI

T4: Recombinant human Fc gamma receptor IIb/c, CD32b/c (human, UniProt P31994 46-217)
T4 sequence (looked up): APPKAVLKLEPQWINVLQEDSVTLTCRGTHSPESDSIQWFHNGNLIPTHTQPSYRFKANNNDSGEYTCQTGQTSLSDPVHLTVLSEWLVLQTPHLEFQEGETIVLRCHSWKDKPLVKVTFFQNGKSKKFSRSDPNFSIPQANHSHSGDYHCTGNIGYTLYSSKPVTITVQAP

T5: CD19 (UniProt P15391 20-291)
T5 sequence (looked up): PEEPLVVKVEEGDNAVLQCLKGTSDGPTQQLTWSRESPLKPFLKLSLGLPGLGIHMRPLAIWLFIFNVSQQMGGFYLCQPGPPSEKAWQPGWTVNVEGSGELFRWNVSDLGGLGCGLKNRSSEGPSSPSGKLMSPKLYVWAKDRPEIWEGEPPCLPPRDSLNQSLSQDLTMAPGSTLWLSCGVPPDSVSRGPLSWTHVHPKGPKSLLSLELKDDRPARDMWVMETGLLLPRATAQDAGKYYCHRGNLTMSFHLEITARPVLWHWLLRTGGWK


Tests used:
CD20 Lipoparticles = biological target: T1, CD20 Lipoparticles
[1] = biological target: Recombinant human Fc gamma receptor IIIa, CD16a 158V (human, UniProt P08637 17-208)
Recombinant human Fc gamma receptor IIIa, CD16a 158V, sequence (P08637 17-208 F176V limits assumed): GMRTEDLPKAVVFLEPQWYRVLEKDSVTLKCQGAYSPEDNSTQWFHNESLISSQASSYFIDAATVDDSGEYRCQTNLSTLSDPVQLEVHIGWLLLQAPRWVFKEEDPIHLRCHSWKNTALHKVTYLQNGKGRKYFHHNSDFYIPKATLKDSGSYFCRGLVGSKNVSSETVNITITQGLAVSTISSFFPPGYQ

[2] = biological target: T2, Recombinant human Fc gamma receptor …
[3] = biological target: Recombinant human Fc gamma receptor IIIa, CD16a 158F (human, UniProt P08637 17-208)
Recombinant human Fc gamma receptor IIIa, CD16a 158F, sequence (P08637 17-208 limits assumed): as the sequence (P08637 17-208 F176V limits assumed) above, with V160F counted along it

[4] = biological target: T3, Recombinant human Fc gamma receptor …
[5] = biological target: Recombinant human Fc gamma receptor IIIb, CD16b (human, UniProt O75015 17-200)
Recombinant human Fc gamma receptor IIIb, CD16b, sequence (O75015 17-200 limits assumed): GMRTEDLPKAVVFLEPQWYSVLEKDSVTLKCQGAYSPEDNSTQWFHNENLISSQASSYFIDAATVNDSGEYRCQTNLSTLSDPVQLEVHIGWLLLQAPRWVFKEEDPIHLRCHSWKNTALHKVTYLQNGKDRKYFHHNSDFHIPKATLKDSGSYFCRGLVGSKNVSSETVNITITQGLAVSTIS

[6] = biological target: T4, Recombinant human Fc gamma receptor …
[7] = biological target: Recombinant human Fc gamma receptor I, CD64 (human, UniProt P12314 16-288)
Recombinant human Fc gamma receptor I, CD64, sequence (P12314 16-288 limits assumed): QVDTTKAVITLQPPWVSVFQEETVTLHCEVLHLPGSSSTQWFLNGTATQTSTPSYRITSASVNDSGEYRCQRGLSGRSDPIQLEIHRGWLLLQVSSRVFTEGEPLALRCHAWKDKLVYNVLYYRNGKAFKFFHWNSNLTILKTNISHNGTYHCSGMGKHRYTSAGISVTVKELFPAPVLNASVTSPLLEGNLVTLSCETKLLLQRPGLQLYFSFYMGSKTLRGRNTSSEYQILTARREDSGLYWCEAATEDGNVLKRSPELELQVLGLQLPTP

CD19 = biological target: T5, CD19

Binder | Kd (CD20 Lipoparticles) | Kd [1] | Kd [2] | Kd [3] | Kd [4] | Kd [5] | Kd [6] | Kd [7] | Kd (CD19)
Rc66SIDE (one-arm antibody) (antibody, human IgG1, kappa) light: QIVLSQSPAILSASPGEKVTMTCRASSSVSYIHWFQQKPGSSPKPWIYATSNLASGVPVRFSGSGSGTSYSLTISRVEAEDAATYYCQQWTSNPPTFGGGTKLEIKRTVAAPSVFIFPPSDEQLKSGTASVVCLLNNFYPREAKVQWKVDNALQSGNSQESVTEQDSKDSTYSLSSTLTLSKADYEKHKVYACEVTHQGLSSPVTKSFNRGEC heavy: QVQLQQPGAELVKPGASVKMSCKASGYTFTSYNMHWVKQTPGRGLEWIGAIYPGNGDTSYNQKFKGKATLTADKSSSTAYMQLSSLTSEDSAVYYCARSTYYGGDWYFNVWGAGTTVTVSAASTKGPSVFPLAPSSKSTSGGTAALGCLVKDYFPEPVTVSWNSGALTSGVHTFPAVLQSSGLYSLSSVVTVPSSSLGTQTYICNVNHKPSNTKVDKKAEPKSCDKTHTCPPCPAPELLGGPDVFLFPPKPKDTLMISRTPEVTCVVVDVSHEDPEVKFNWYVDGVEVHNAKTKPREEQYNSTYRVVSVLTVLHQDWLNGKEYKCKVSNKALPAPEEKTISKAKGQPREPQVYVLPPSRDELTKNQVSLLCLVKGFYPSDIAVEWESNGQPENNYLTWPPVLDSDGSFFLYSKLTVDKSRWQQGNVFSCSVMHEALHNHYTQKSLSLSPGK CPPCPAPELLGGPDVFLFPPKPKDTLMISRTPEVTCVVVDVSHEDPEVKFNWYVDGVEVHNAKTKPREEQYNSTYRVVSVLTVLHQDWLNGKEYKCKVSNKALPAPEEKTISKAKGQPREPQVYVYPPSRDELTKNQVSLTCLVKGFYPSDIAVEWESNGQPENNYKTTPPVLDSDGSFALVSKLTVDKSRWQQGNVFSCSVMHEALHNHYTQKSLSLSPGK | 21.4 nM | 46.2 nM | 202 nM | 76.8 nM | 255 nM | 163 nM | 253 nM |  | 
Rc66SIDE-P4-Rc66SIDE (antibody, human IgG1, kappa) light: QIVLSQSPAILSASPGEKVTMTCRASSSVSYIHWFQQKPGSSPKPWIYATSNLASGVPVRFSGSGSGTSYSLTISRVEAEDAATYYCQQWTSNPPTFGGGTKLEIKRTVAAPSVFIFPPSDEQLKSGTASVVCLLNNFYPREAKVQWKVDNALQSGNSQESVTEQDSKDSTYSLSSTLTLSKADYEKHKVYACEVTHQGLSSPVTKSFNRGEC heavy: QVQLQQPGAELVKPGASVKMSCKASGYTFTSYNMHWVKQTPGRGLEWIGAIYPGNGDTSYNQKFKGKATLTADKSSSTAYMQLSSLTSEDSAVYYCARSTYYGGDWYFNVWGAGTTVTVSAASTKGPSVFPLAPSSKSTSGGTAALGCLVKDYFPEPVTVSWNSGALTSGVHTFPAVLQSSGLYSLSSVVTVPSSSLGTQTYICNVNHKPSNTKVDKKAEPKSCDKTHTCPPCPAPELLGGPDVFLFPPKPKDTLMISRTPEVTCVVVDVSHEDPEVKFNWYVDGVEVHNAKTKPREEQYNSTYRVVSVLTVLHQDWLNGKEYKCKVSNKALPAPEEKTISKAKGQPREPQVYVLPPSRDELTKNQVSLLCLVKGFYPSDIAVEWESNGQPENNYLTWPPVLDSDGSFFLYSKLTVDKSRWQQGNVFSCSVMHEALHNHYTQKSLSLSPGK CPPCPAPELLGGPDVFLFPPKPKDTLMISRTPEVTCVVVDVSHEDPEVKFNWYVDGVEVHNAKTKPREEQYNSTYRVVSVLTVLHQDWLNGKEYKCKVSNKALPAPEEKTISKAKGQPREPQVYVYPPSRDELTKNQVSLTCLVKGFYPSDIAVEWESNGQPENNYKTTPPVLDSDGSFALVSKLTVDKSRWQQGNVFSCSVMHEALHNHYTQKSLSLSPGK | < 0.001 nM | 1.14 nM | 4.93 nM | 3.87 nM | 2.54 nM | 1.05 nM | 3.17 nM | < 0.001 nM | 
Rc66SIDE-P16-Rc66SIDE (antibody, human IgG1, kappa) light: QIVLSQSPAILSASPGEKVTMTCRASSSVSYIHWFQQKPGSSPKPWIYATSNLASGVPVRFSGSGSGTSYSLTISRVEAEDAATYYCQQWTSNPPTFGGGTKLEIKRTVAAPSVFIFPPSDEQLKSGTASVVCLLNNFYPREAKVQWKVDNALQSGNSQESVTEQDSKDSTYSLSSTLTLSKADYEKHKVYACEVTHQGLSSPVTKSFNRGEC heavy: QVQLQQPGAELVKPGASVKMSCKASGYTFTSYNMHWVKQTPGRGLEWIGAIYPGNGDTSYNQKFKGKATLTADKSSSTAYMQLSSLTSEDSAVYYCARSTYYGGDWYFNVWGAGTTVTVSAASTKGPSVFPLAPSSKSTSGGTAALGCLVKDYFPEPVTVSWNSGALTSGVHTFPAVLQSSGLYSLSSVVTVPSSSLGTQTYICNVNHKPSNTKVDKKAEPKSCDKTHTCPPCPAPELLGGPDVFLFPPKPKDTLMISRTPEVTCVVVDVSHEDPEVKFNWYVDGVEVHNAKTKPREEQYNSTYRVVSVLTVLHQDWLNGKEYKCKVSNKALPAPEEKTISKAKGQPREPQVYVLPPSRDELTKNQVSLLCLVKGFYPSDIAVEWESNGQPENNYLTWPPVLDSDGSFFLYSKLTVDKSRWQQGNVFSCSVMHEALHNHYTQKSLSLSPGK CPPCPAPELLGGPDVFLFPPKPKDTLMISRTPEVTCVVVDVSHEDPEVKFNWYVDGVEVHNAKTKPREEQYNSTYRVVSVLTVLHQDWLNGKEYKCKVSNKALPAPEEKTISKAKGQPREPQVYVYPPSRDELTKNQVSLTCLVKGFYPSDIAVEWESNGQPENNYKTTPPVLDSDGSFALVSKLTVDKSRWQQGNVFSCSVMHEALHNHYTQKSLSLSPGK | < 0.001 nM | 0.257 nM | 1.83 nM | 2.71 nM | 0.808 nM | < 0.001 nM | 0.556 nM | < 0.001 nM | 
Rc66SIDE-P28-Rc66SIDE (antibody, human IgG1, kappa) light: QIVLSQSPAILSASPGEKVTMTCRASSSVSYIHWFQQKPGSSPKPWIYATSNLASGVPVRFSGSGSGTSYSLTISRVEAEDAATYYCQQWTSNPPTFGGGTKLEIKRTVAAPSVFIFPPSDEQLKSGTASVVCLLNNFYPREAKVQWKVDNALQSGNSQESVTEQDSKDSTYSLSSTLTLSKADYEKHKVYACEVTHQGLSSPVTKSFNRGEC heavy: QVQLQQPGAELVKPGASVKMSCKASGYTFTSYNMHWVKQTPGRGLEWIGAIYPGNGDTSYNQKFKGKATLTADKSSSTAYMQLSSLTSEDSAVYYCARSTYYGGDWYFNVWGAGTTVTVSAASTKGPSVFPLAPSSKSTSGGTAALGCLVKDYFPEPVTVSWNSGALTSGVHTFPAVLQSSGLYSLSSVVTVPSSSLGTQTYICNVNHKPSNTKVDKKAEPKSCDKTHTCPPCPAPELLGGPDVFLFPPKPKDTLMISRTPEVTCVVVDVSHEDPEVKFNWYVDGVEVHNAKTKPREEQYNSTYRVVSVLTVLHQDWLNGKEYKCKVSNKALPAPEEKTISKAKGQPREPQVYVLPPSRDELTKNQVSLLCLVKGFYPSDIAVEWESNGQPENNYLTWPPVLDSDGSFFLYSKLTVDKSRWQQGNVFSCSVMHEALHNHYTQKSLSLSPGK CPPCPAPELLGGPDVFLFPPKPKDTLMISRTPEVTCVVVDVSHEDPEVKFNWYVDGVEVHNAKTKPREEQYNSTYRVVSVLTVLHQDWLNGKEYKCKVSNKALPAPEEKTISKAKGQPREPQVYVYPPSRDELTKNQVSLTCLVKGFYPSDIAVEWESNGQPENNYKTTPPVLDSDGSFALVSKLTVDKSRWQQGNVFSCSVMHEALHNHYTQKSLSLSPGK | < 0.001 nM | 4.98 nM | 8.11 nM | 6.62 nM | 5.42 nM | 5.64 nM | 7.28 nM | 1.14 nM | 
B19c66AAC9 (one-arm antibody) (antibody, human IgG1, kappa) light: not shown heavy: QVQLQQSGAELVRPGSSVKISCKASGYAFSSYWMNWVKQRPGQGLEWIGQIWPGDGDTNYNGKFKGKATLTADESSSTAYMQLSSLASEDSAVYFCARRETTTVGRYYYAMDYWGQGTTVTVSSASTKGPSVFPLAPSSKSTSGGTAALGCLVKDYFPEPVTVSWNSGALTSGVHTFPAVLQSSGLYSLSSVVTVPSSSLGTQTYICNVNHKPSNTKVDKKVEPKSCDKTHTCPPCPAPKRRGGPSVFLFPPKPKDTLMISRTPEVTCVVVDVSHEDPEVKFNWYVDGVEVHNAKTKPREEQYNSTYRVVSVLTVLHQDWLNGKEYKCKVSNKALPAPIEKTISKAKGQPREPQVYVLPPSRDELTKNQVSLLCLVKGFYPSDIAVEWESNGQPENNYLTWPPVLDSDGSFFLYSKLTVDKSRWQQGNVFSCSVMHEALHNHYTQKSLSLSPGK CPPCPAPEDEGGPSVFLFPPKPKDTLMISRTPEVTCVVVDVSHEDPEVKFNWYVDGVEVHNAKTKPREEQYNSTYRVVSVLTVLHQDWLNGKEYKCKVSNKALPAPIEKTISKAKGQPREPQVYVYPPSRDELTKNQVSLTCLVKGFYPSDIAVEWESNGQPENNYKTTPPVLDSDGSFALVSKLTVDKSRWQQGNVFSCSVMHEALHNHYTQKSLSLSPGK |  |  |  |  |  |  |  |  | 21 nM
